Measured values taken from patent US20220062371A1 (DEBIOPHARM RESEARCH AND MANUFACTURING S A, published 2022).
Like-named read-outs stand apart in the source and are kept apart here. Non-standard residues stand in square brackets, D forms with d. Groups on a side chain read outwards from the residue. Primed or numbered codes have the meaning given here. No end group written: not given here. *: point of attachment. OCPT = camptothecin (CPT) attached as an ester, CC[C@@]1(O*)C(=O)OCc2c1cc1n(c2=O)Cc2cc3ccccc3nc2-1; Propanoyl(3-maleimido) = O=C1C=CC(=O)N1CCC(=O)*; PEG4′ = tetraethylene glycol; Dab = NCC[C@H](N)C(=O)O; CO′ = not defined here; Dap = NC[C@H](N)C(=O)O; CPT = Camptothecin; AF = auristatin F; Sar = CNCC(=O)O

B1: Compound 23, DM1-Mcc-Cit-Lys(PEG5-Ma-Cys-Ac)-Tyr-OH (peptide)
peptide: XKY
modifications: X at position 1 is citrulline (Cit); DM1-Mcc on the N-terminus; Lys 2 side chain carries PEG5-Ma-Cys-Ac
B2: Compound 3, AF-Arg-Phe-Lys(PEG4-Mal-Cys-Ac)-OH (peptide)
peptide: RFK
modifications: N-terminus acylated with auristatin F (AF); Lys 3 side chain carries PEG4-Mal-Cys-Ac
B3: Compound 1, AF-Arg-Lys(PEG4-Mal-Cys-Ac)-Phe-OH (peptide)
peptide: RKF
modifications: N-terminus acylated with auristatin F (AF); Lys 2 side chain carries PEG4-Mal-Cys-Ac
B4: Compound 19, AF-Cit-Lys(PEG4-Mal-Cys-Ac)-Phe-OH (peptide)
peptide: XKF
modifications: X at position 1 is citrulline (Cit); N-terminus acylated with auristatin F (AF); Lys 2 side chain carries PEG4-Mal-Cys-Ac

Columns and labels:
Experiment in all cases: cell-based or functional assay
[1] = molecular target: T1, Recombinant human Cathepsin B (human, UniProt P07858 80-333)
[2] = molecular target: T1, Recombinant human Cathepsin B; remark: listed apart in the source
[3] = molecular target: T1, Recombinant human Cathepsin B; remark: listed apart in the source
[4] = molecular target: T1, Recombinant human Cathepsin B; remark: listed apart in the source

| Binder | Ratio (T1/2 Compound/T1/2 Reference) [2] | Ratio (T1/2 Compound/T1/2 Reference) [3] | further results |
| --- | --- | --- | --- |
| FRKRKF (Ac-Cys-Mal-PEG4 at the N-terminus; Lys(Mal-DM1); Lys(AF)) [Compound 30, Ac-Cys-Mal-PEG4-Phe-Arg-Lys(Mal-DM1)-Arg-Lys(AF)-Phe-OH] |  |  | Ratio (T1/2 Compound/T1/2 Reference) [1]: 0.07 |
| R[PEG4′]FRE([Sar-OCPT])F-OH [Compound 8, Arg-PEG4-Phe-Arg-Glu(Sar-OCPT)-Phe-OH] | 0.19 |  |  |
| FXKY (DM1-Mcc on the N-terminus of Phe; citrulline (Cit); Lys(PEG5-Ma-Cys-Ac)) [Compound 22, DM1-Mcc-Phe-Cit-Lys(PEG5-Ma-Cys-Ac)-Tyr-OH] |  | 0.005 |  |
| {Ac-Cys-Propanoyl(3-maleimido)-PEG4′}-FKK(AF)F-OH [Compound 13, Ac-Cys-Mal-PEG4-Phe-Lys-Lys(AF)-Phe-OH] | 0.15 |  |  |
| FXKY (Ac-Cys-Ma-PEG5 at the N-terminus; citrulline (Cit); Lys(Mcc-DM1)) [Compound 27, Ac-Cys-Ma-PEG5-Phe-Cit-Lys(Mcc-DM1)-Tyr-OH] | 0.005 |  |  |
| FKKF (DM1-Mal on the N-terminus of Phe; Lys(PEG4-Mal-Cys-Ac)) [Compound 5, DM1-Mal-Phe-Lys-Lys(PEG4-Mal-Cys-Ac)-Phe-OH] |  | 0.05 |  |
| FXKF (DM1-Mal on the N-terminus of Phe; citrulline (Cit); Lys(PEG4-Mal-Cys-Ac)) [Compound 6, DM1-Mal-Phe-Cit-Lys(PEG4-Mal-Cys-Ac)-Phe-OH] |  | 0.02 |  |
| R[PEG4′]FRS([CO′-CPT])F-OH [Compound 11, Arg-PEG4-Phe-Arg-Ser(CO-CPT)-Phe-OH] | 0.2 |  |  |
| B1 |  | 4e-05 |  |
| FKKFFKKF (Ac-Cys-Mal-PEG4 at the N-terminus; two Lys(Mal-DM1)) [Compound 29, Ac-Cys-Mal-PEG4-[Phe-Lys-Lys(Mal-DM1)-Phe]2-OH] |  |  | Ratio (T1/2 Compound/T1/2 Reference) [1]: 0.23 |
| R[PEG4′]FR[Dap](CO‑CPT)F-OH [Compound 9, Arg-PEG4-Phe-Arg-Dap(CO-CPT)-Phe-OH] | 0.63 |  |  |
| B2 |  | 0.11 |  |
| XKFKF (AF at the N-terminus; citrulline (Cit); Lys(Mal-DM1); Lys(PEG4-Mal-Cys-Ac)) [Compound 31, AF-Cit-Lys(Mal-DM1)-Phe-Lys(PEG4-Mal-Cys-Ac)-Phe-OH] |  |  | Ratio (T1/2 Compound/T1/2 Reference) [4]: 0.08 |
| R[PEG4′]FR[Dab](CO‑CPT)F-OH [Compound 10, Arg-PEG4-Phe-Arg-Dab(CO-CPT)-Phe-OH] | 0.1 |  |  |
| FKKF (Ac-Cys-Mal-PEG4 at the N-terminus; Lys(Mal-DM1)) [Compound 12, Ac-Cys-Mal-PEG4-Phe-Lys-Lys(Mal-DM1)-Phe-OH] | 0.14 |  |  |
| FKKFFK (Ac-Cys-Mal-PEG4 at the N-terminus; Lys(Mal-DM1)) [Compound 28, Ac-Cys-Mal-PEG4-Phe-Lys-Lys(Mal-DM1)-Phe-Phe-Lys-OH] | 0.03 |  |  |
| FXFK (DM1-Mal on the N-terminus of Phe; citrulline (Cit); Lys(PEG4-Mal-Cys-Ac)) [Compound 7, DM1-Mal-Phe-Cit-Phe-Lys(PEG4-Mal-Cys-Ac)-OH] |  | 0.09 |  |
| B3 |  | 0.12 |  |
| B4 |  | 0.09 |  |
